In publication PMC5018210 (Nature, 2016):

Molecular target: the molecule itself
Test: SEC-MALS

B1: MHV S ectodomain trimer (murine hepatitis virus spike glycoprotein ectodomain, R717S, fused to a GCN4 trimerization motif) (domain or fragment)
chain: YIGDFRCIQLVNSNGANVSAPSISTETVEVSQGLGTYYVLDRVYLNATLLLTGYYPVDGSKFRNLALRGTNSVSLSWFQPPYLNQFNDGIFAKVQNLKTSTPSGATAYFPTIVIGSLFGYTSYTVVIEPYNGVIMASVCQYTICQLPYTDCKPNTNGNKLIGFWHTDVKPPICVLKRNFTLNVNADAFYFHFYQHGGTFYAYYADKPSATTFLFSVYIGDILTQYYVLPFICNPTAGSTFAPRYWVTPLVKRQYLFNFNQKGVITSAVDCASSYTSEIKCKTQSMLPSTGVYELSGYTVQPVGVVYRRVANLPACNIEEWLTARSVPSPLNWERKTFQNCNFNLSSLLRYVQAESLFCNNIDASKVYGRCFGSISVDKFAVPRSRQVDLQLGNSGFLQTANYKIDTAATSCQLHYTLPKNNVTINNHNPSSWNRRYGFNDAGVFGKNQHDVVYAQQCFTVRSSYCPCAQPDIVSPCTTQTKPKSAFVNVGDHCEGLGVLEDNCGNADPHKGCICANNSFIGWSHDTCLVNDRCQIFANILLNGINSGTTCSTDLQLPNTEVVTGICVKYDLYGITGQGVFKEVKADYYNSWQTLLYDVNGNLNGFRDLTTNKTYTIRSCYSGRVSAAFHKDAPEPALLYRNINCSYVFSNNISREENPLNYFDSYLGCVVNADNRTDEALPNCDLRMGAGLCVDYSKSRRAHSSVSTGYRLTTFEPYTPMLVNDSVQSVDGLYEMQIPTNFTIGHHEEFIQTRSPKVTIDCAAFVCGDNTACRQQLVEYGSFCVNVNAILNEVNNLLDNMQLQVASALMQGVTISSRLPDGISGPIDDINFSPLLGCIGSTCAEDGNGPSAIRGRSAIEDLLFDKVKLSDVGFVEAYNNCTGGQEVRDLLCVQSFNGIKVLPPVLSESQISGYTTGATAAAMFPPWSAAAGVPFSLSVQYRINGLGVTMNVLSENQKMIASAFNNALGAIQDGFDATNSALGKIQSVVNANAEALNNLLNQLSNRFGAISASLQEILTRLEAVEAKAQIDRLINGRLTALNAYISKQLSDSTLIKVSAAQAIEKVNECVKSQTTRINFCGNGNHILSLVQNAPYGLYFIHFSYVPISFTTANVSPGLCISGDRGLAPKAGYFVQDDGEWKFTGSSYYYPEPITDKNSVIMSSCAVNYTKAPEVFLNTSIPNPPDFKEELDKWFKNQTSIAPDLSLDFEKLNVTLLDLIKRMKQIEDKIEEIESKQKKIENEIARIKKIKLVPRGSLE
B1 was tested, and the “stoichiometry N” value was 3.
